Reference: US8889130B2, “Treatment of osteoarthritis and pain” (Abbvie Inc., priority 2011, dated 2014)

T1: hIL-1α (Homo sapiens, UniProt P01583)
T1 sequence (P01583 113-271): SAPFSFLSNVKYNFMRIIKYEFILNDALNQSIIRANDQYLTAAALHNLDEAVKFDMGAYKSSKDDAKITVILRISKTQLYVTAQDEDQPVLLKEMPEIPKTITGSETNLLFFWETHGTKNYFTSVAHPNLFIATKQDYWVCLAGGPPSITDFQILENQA


Tests used:
hIL-1α = target: T1, hIL-1α; assay: Surface plasmon resonance (Biacore) binding kinetics and affinity to hIL-1α; settings: antigen hIL-1α
Description: (§1) The kinetics of DVD-Ig molecules binding to rhIL1-α and rhIL1-β was determined by surface plasmon resonance-based measurements with a Biacore 3000 instrument (Biacore AB, Uppsala, Sweden) using HBS-EP (10 mM HEPES, pH 7.4, 150 mM NaCl, 3 mM EDTA, and 0.005% surfactant P20) at 25° C. All chemicals were obtained from Biacore AB (Uppsala, Sweden) or otherwise from a different source as described herein. Approximately, 5000 RU of goat anti-human IgG Fcγ fragment specific polyclonal antibody (Pierce Biotechnology Inc, Rockford, Ill.) diluted in 10 mM sodium acetate (pH 4.5) was directly immobilized across a CM5 research grade biosensor chip using a standard amine coupling kit according to manufacturer's instructions and procedures at […]. Unreacted moieties on the biosensor surface were blocked with ethanolamine. Modified carboxymethyl dextran surface in flowcell 2 and 4 was used as a reaction surface. Unmodified carboxymethyl dextran without goat anti-human IgG in flow cell 1 and 3 was used as the reference surface. For kinetic analysis, rate equations derived from the 1:1 Langmuir binding model were fitted simultaneously to association and dissociation phases of all ten injections (using global fit analysis) using the Bioevaluation 4.0.1 software. Purified DVD-Ig samples were diluted in HEPES-buffered saline for capture across goat anti-human IgG Fc specific reaction surfaces and injected over reaction matrices at a flow rate of […]. The association and dissociation rate constants, kon (M-1s-1) and koff (s-1) were determined under a continuous flow rate of […]. Rate constants were derived by making kinetic binding measurements at ten different antigen concentrations ranging from 1.25 to 1000 nM. The equilibrium dissociation constant (M) of the reaction between DVD-Ig molecule and rhIL1α/β was then calculated from the kinetic rate constants by the following formula: KD=koff/kon. Aliquots of rhIL1α/β samples were also simultaneously injected over a blank reference and reaction CM surface to record and subtract any nonspecific binding background to eliminate the majority of the refractive index change and injection noise. Surfaces were regenerated with two subsequent […] injections of 10 mM Glycine (pH 1.5) at a flow rate of […]. The anti-Fc antibody immobilized surfaces were completely regenerated and retained their full capture capacity over twelve cycles. The apparent stoichiometry of the captured DVD-Ig-rhIL1α/β complex was calculated under saturating binding conditions (steady-state equilibrium) using the following formula: […]

[1] = Size exclusion chromatography (SEC): physical homogeneity and in vitro stability; format: physicochemical; settings: 0.2-0.4 mg/ml in PBS, SEC
Description: For measuring molecular weight (MW) of light and heavy chains of DVD-Ig binding protein, 10 μL of DVD-Ig molecule (0.8 μg/μL) was reduced by 1.0 M DTT solution (5 μL). A PLRP-S, 8μ, 4000 A, and 1×150 mm protein column (Michrom BioResource, Auburn, Mass.) was used to separate heavy and light chains of DVD-Ig molecule. Agilent HP1100 Capillary HPLC (Agilent Technologies Inc., Pala Alto, Calif.) was used with the mass spectrometer QSTAR (Applied Biosystems, Foster City, Calif.). The valco valve was set at 10 minutes to switch the flow from waste to MS for desalting sample. Buffer A was 0.02% TFA, 0.08% FA, 0.1% ACN and 99.8% HPLC-H2O. Buffer B contained 0.02% TFA, 0.08% FA, 0.1% HPLC-H2O, and 99.8% ACN. The HPLC flow rate was 50 μL/minute and the sample injection volume was […]. The temperature of the column oven was set at 60° C., and separation gradient was: 5% B for 5 minutes; 5% B to 65% B for 35 minutes; 65% B to 95% B for another 5 minutes, and 95% B to 5% B for 5 minutes. TOFMS scan was from 800 to 2500 amu, and cycles were 3600. To determine the MW of full length DVD-Ig binding protein, a Protein MicroTrap cartridge (Michrom BioResource, Auburn, Mass.) was used for desalting the sample. The HPLC gradient was: 5% B for 5 minutes; 5% B to 95% B in 1 minute; and from 95% B to 5% B in another 4 minutes. The QSTAR TOFMS scan was from 2000 to 3500 amu, and cycles were 899. All MS raw data were analyzed using the Analyst QS software (Applied Biosystems). For SEC analysis of the DVD-Ig binding protein, purified DVD-Ig binding protein and chimeric Abs, in PBS, were applied on a Superose 6 10/300 G2, 300×10 mm column (Amersham Bioscience, Piscataway, N.J.). An HPLC instrument, Model 10A (Shimadzu, Columbia, Md.) was used for SEC. All proteins were determined using UV detection at 280 nm and 214 nm. The elution was isocratic at a flow rate of 0.5 mL/minute. For stability study, samples in the concentration range of 0.2-0.4 mg/ml in PBS underwent 3 freeze-thaw cycles between −80° C. and 25° C., or were incubated at 4° C., 25° C., or 40° C., for 4 weeks and 8 weeks, followed by SEC analysis.
In order to determine the precise molecular weight of the DVD-Ig binding proteins, mass spectrometry was employed. […] To further study the physical properties of DVD-Ig binding protein in solution, size exclusion chromatography (SEC) was used to analyze each protein.
The physical stability of DVD-Ig was tested as follows. Purified antibodies in the concentration range of 0.2-0.4 mg/ml in PBS underwent 3 freeze-thaw cycles between −80° C. and 25° C., or were incubated at 4° C., 25° C., or 40° C., for 4 weeks and 8 weeks, followed by analysis using size exclusion chromatography (SEC) analysis (see Table 12).

hIL-1β = hIL-1β (Homo sapiens, UniProt P01584); assay: Surface plasmon resonance (Biacore) binding kinetics and affinity to hIL-1β; settings: antigen hIL-1β
hIL-1β, sequence (P01584 117-269): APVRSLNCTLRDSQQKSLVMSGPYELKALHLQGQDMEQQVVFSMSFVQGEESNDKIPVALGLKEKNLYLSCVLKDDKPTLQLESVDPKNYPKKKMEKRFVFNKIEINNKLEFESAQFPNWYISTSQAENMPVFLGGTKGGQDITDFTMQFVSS
Description: as §1

[2] = 3xFreeze-Thaw between −80° C. and 25° C.

| koff (hIL-1α) [s⁻¹] | kon (hIL-1α) [M⁻¹ s⁻¹] | Molecule | Ab (intact antibody) [1, 2] [percentage] | Agg (aggregates) [1, 2] [percentage] | Frgm (fragments) [1, 2] [percentage] | Ab (intact antibody) ([1]; 4° C. @ 4 Wks) [percentage] | Agg (aggregates) ([1]; 4° C. @ 4 Wks) [percentage] | Frgm (fragments) ([1]; 4° C. @ 4 Wks) [percentage] | Ab (intact antibody) ([1]; 4° C. @ 8 Wks) [percentage] | Agg (aggregates) ([1]; 4° C. @ 8 Wks) [percentage] | Frgm (fragments) ([1]; 4° C. @ 8 Wks) [percentage] | Ab (intact antibody) ([1]; 25° C. @ 4 Wks) [percentage] | Agg (aggregates) ([1]; 25° C. @ 4 Wks) [percentage] | Frgm (fragments) ([1]; 25° C. @ 4 Wks) [percentage] | Ab (intact antibody) ([1]; 25° C. @ 8 Wks) [percentage] | Frgm (fragments) ([1]; 25° C. @ 8 Wks) [percentage] | Ab (intact antibody) ([1]; 40° C. @ 4 Wks) [percentage] | Agg (aggregates) ([1]; 40° C. @ 4 Wks) [percentage] | Frgm (fragments) ([1]; 40° C. @ 4 Wks) [percentage] | Ab (intact antibody) ([1]; 40° C. @ 8 Wks) [percentage] | other results |
| --- | --- | --- | --- | --- | --- | --- | --- | --- | --- | --- | --- | --- | --- | --- | --- | --- | --- | --- | --- | --- | --- |
| 0.000552 | 412000 | 3D12.E3-Ch: murine-human chimeric form of 3D12.E3 (anti-hIL-1α) with human constant region (antibody, V domains shown) VH: QIQLVQSGPELKKPGETVKISCKASGYTFRNYGMNWVKQAPGKDLKRMAWINTYTGESTYADDFKGRFAFSLETSASTAYLQINNLKNEDTATYFCARGIYYYGSSYAMDYWGQGTSVTVSS VL: NIQMTQTTSSLSASLGDRVTISCRASQDISNCLNWYQQKPDGTVKLLIYYTSRLHSGVPSRFSGSGSGTDYSLTISNLEQEDIATYFCQQGKTLPYAFGGGTKLEINR | 98.28 | 1.72 | 0.00 | 99.15 | 0.85 | 0.00 | 90.33 | 5.35 | 4.32 | 98.71 | 1.29 | 0.00 | 60.55 | 38.34 | 98.35 | 1.65 | 0.00 | 81.47 | Agg (aggregates) ([1]; 40° C. @ 8 Wks): 4.74 percentage; Frgm (fragments) ([1]; 40° C. @ 8 Wks): 13.79 percentage |
| 0.000713 | 643000 | 3D12.E3: murine monoclonal antibody to human IL-1α; VH SEQ ID NO: 89, VL SEQ ID NO: 90 (antibody, listed as Mus musculus, V domains shown) VH: QIQLVQSGPELKKPGETVKISCKASGYTFRNYGMNWVKQAPGKDLKRMAWINTYTGESTYADDFKGRFAFSLETSASTAYLQINNLKNEDTATYFCARGIYYYGSSYAMDYWGQGTSVTVSS VL: NIQMTQTTSSLSASLGDRVTISCRASQDISNCLNWYQQKPDGTVKLLIYYTSRLHSGVPSRFSGSGSGTDYSLTISNLEQEDIATYFCQQGKTLPYAFGGGTKLEINR | – | – | – | – | – | – | – | – | – | – | – | – | – | – | – | – | – | – | – |
| – | – | 13F5.G5-Ch: murine-human chimeric form of 13F5.G5 (anti-hIL-1β) with human constant region (antibody, V domains shown) VH: QVQLQQSGAELVRPGSSVKISCKASGYAFSSYWMNWVKQRPGQGLEWIGQIYPGDGDTNYNGKFKGKATLTADKSSSTSYMQLSGLTSEDSAMYFCVRFPTGNDYYAMDYWGQGTSVTVSS VL: NIVLTQSPASLAVSLGQRATISCRASESVDSYGNSYMHWYQQKPGQPPKLLIYLASNLESGVPARFSGSGSRTDFTLTIDPVEADDAATYYCQQNNEDPFTFGSGTKLEIKR | 87.0 | 13.0 | 0.0 | 95.8 | 4.2 | 0.0 | 97.8 | 2.2 | 0.0 | 100.0 | 0.0 | 0.0 | 97.5 | 1.0 | 78.1 | 20.3 | 1.6 | 65.4 | koff (hIL-1β): 0.000654 s⁻¹; kon (hIL-1β): 1.41e+06 M⁻¹ s⁻¹; Agg (aggregates) ([1]; 25° C. @ 8 Wks): 1.4 percentage; Agg (aggregates) ([1]; 40° C. @ 8 Wks): 34.6 percentage; Frgm (fragments) ([1]; 40° C. @ 8 Wks): 0.0 percentage |
